In article PMC12866752, “Computational Design and Glycoengineering of Interferon‐Lambda for Nasal Prophylaxis Against Respiratory Viruses” (Advanced Science, 2025):

Target: T1, recombinant ectodomain of human IFN-λ receptor 1 (hIFN-λR1) (human, UniProt Q8IU57 21-228)
T1 construct: for the receptor neither is said; also called IFNLR1; source: recombinant; plasmids transfected into Expi293-F cells; purification of the receptor not described
T1 sequence (looked up): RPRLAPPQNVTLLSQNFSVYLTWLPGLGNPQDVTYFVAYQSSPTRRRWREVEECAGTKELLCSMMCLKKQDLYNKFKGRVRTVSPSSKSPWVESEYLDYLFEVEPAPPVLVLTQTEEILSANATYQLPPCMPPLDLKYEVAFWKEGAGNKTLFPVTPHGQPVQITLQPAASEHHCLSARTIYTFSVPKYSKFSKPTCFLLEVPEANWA
Assay: SPR; Biacore T200; His-tagged hIFN-λ3-WT or hIFN-λ3-DE1 immobilised on a Series S NTA chip to about 200 RU; analyte hIFN-λR1 ectodomain at 6.25, 12.5 and 25 nM, 60 s at 10 µL/min, 120 s dissociation; 1X PBS-P+ with 50 nM EDTA; global fit to a 1:1 model
Conditions: both partners purified

binding result: binds
B1: wild-type human interferon-λ3 (hIFN-λ3-WT), His-tagged (ligand, UniProt Q8IZI9 22-196, looked up)
chain: VPVARLRGALPDARGCHIAQFKSLSPQELQAFKRAKDALEESLLLKDCKCRSRLFPRTWDLRQLQVRERPVALEAELALTLKVLEATADTDPALGDVLDQPLHTLHHILSQLRACIQPQPTAGPRTRGRLHHWLHRLQEAPKKESPGCLEASVTFNLFRLLTRDLNCVASGDLCV
notes: human IFN-λ3, full-length cDNA in a modified pcDNA3.1 with a TEV site and C-terminal 6xHis tag; also called wild-type hIFN-λ3; source: Expi293-F cells, transfected, from the culture supernatant, purified (Ni-NTA, SEC); not shown: His6, C-terminal, kept
